# Measurements: patent publication US20190085095A1 (SHIRE HUMAN GENETIC THERAPIES, published 2019)
# Values joined by “and” are separate entries in the source; they are usually repeats but may differ in a detail not shown here. Equal values may be shown once.
# Tests used:
# cynomolgus monkey C5 [1] = molecular target: T1, cynomolgus monkey C5 (cynomolgus monkey, UniProt A0A2K5U1T1 19-1676); assay: mean affinity for cC5, Biacore
# T1 construct: also called cC5; cynomolgus C5
# [2] = molecular target: T2, human complement component 5 (C5) (human, UniProt P01031 19-1676); assay: Biacore, mAb captured via anti-Fc, hC5, pH 7.4
# T2 construct: used as purified protein or in serum as the analyte; also called hC5; purified human C5
# Method: (§1) The kinetics of binding of purified human C5 (hC5) or hC5 in human serum to immobilized mAbs (via capture with anti-Fc antibodies) were measured by Biacore® assays over a pH range from 7.4 to 5.5. Binding was tested at pH 7.4, 7.0, 6.5, 6.0, and 5.5.
# [3] = molecular target: T2, human complement component 5 (C5); assay: Biacore; KD at pH 5.5 against KD at pH 7.4
# Method: as §1
# [4] = molecular target: T3, human neonatal Fc receptor (FcRn) (human, UniProt P55899 24-297; P61769 21-119); assay: Biacore, immobilized recombinant hFcRn, pH 6.0; pH 6.0
# T3 construct: also called hFcRn; recombinant FcRn
# Method: (§2) Kinetics of binding to immobilized recombinant FcRn was determined for mAbs at pH 7.4 and pH 5.5 in Biacore® assays.
# FcγRIIIA = FcγRIIIA (UniProt P08637 17-208, limits assumed); assay: binding affinity to Fcγ receptor, method not stated; range 1000-31.25 nM
# [5] = molecular target: T2, human complement component 5 (C5); assay: Biacore, pH 7.4, against Control 1
# Method: as §1
# [6] = molecular target: T2, human complement component 5 (C5); assay: Biacore, mAb captured via anti-Fc, hC5, pH 5.5
# Method: as §1
# [7] = molecular target: T2, human complement component 5 (C5); assay: cell-based or functional assay
# [8] = molecular target: T3, human neonatal Fc receptor (FcRn); assay: Biacore, immobilized recombinant hFcRn, pH 5.5; pH 5.5
# Method: as §2
# African Green monkey C5 = molecular target: T4, African Green monkey C5 (African Green monkey); assay: Biacore, antibody captured, African Green monkey serum as analyte, pH 7.4; estimated, C5 titer assumed
# T4 construct: also called C5 in African Green monkey serum
# Method: (§3) Biacore® binding assays were performed with antibody captured on the chip and sera from 16 different mammalian species as the analyte that is flowed over the chip.
# baboon C5 = molecular target: T5, baboon C5 (baboon); assay: Biacore, antibody captured, baboon serum as analyte, pH 7.4; estimated, C5 titer assumed
# T5 construct: also called C5 in baboon serum
# Method: as §3
# [9] = molecular target: T2, human complement component 5 (C5); assay: Kd at pH 5.5 against Kd at pH 7.4
# [10] = molecular target: T2, human complement component 5 (C5); assay: C5 binding affinity at pH 7.4; method not named in Example 2; pH 7.4; IgG2 Fc
# [11] = molecular target: T2, human complement component 5 (C5); assay: C5 binding affinity at pH 5.5; method not named in Example 2
# [12] = molecular target: T3, human neonatal Fc receptor (FcRn); assay: Biacore, immobilized recombinant hFcRn, pH 6.0
# Method: as §2
# [13] = molecular target: T3, human neonatal Fc receptor (FcRn); assay: Biacore, immobilized recombinant hFcRn, pH 7.4; range 50-0.39 nM; pH 7.4; concentration range 50-0.39 nM
# Method: as §2
# [14] = molecular target: T2, human complement component 5 (C5); assay: Biacore, antibody captured, human serum as analyte, pH 7.4
# Method: as §3
# CD-1 mouse C5 = molecular target: T6, CD-1 mouse C5 (CD-1 mouse, UniProt P06684 19-1680); assay: Biacore, antibody captured, CD-1 mouse serum as analyte, pH 7.4; estimated, C5 titer assumed
# T6 construct: also called C5 in CD-1 mouse serum; CD1 mice
# Method: as §3
# cynomolgus monkey C5 [15] = molecular target: T1, cynomolgus monkey C5; assay: Biacore, antibody captured, cynomolgus serum as analyte, pH 7.4
# Method: as §3
# [16] = molecular target: T3, human neonatal Fc receptor (FcRn); assay: Biacore, immobilized recombinant hFcRn, pH 5.5
# Method: as §2
# [17] = molecular target: T2, human complement component 5 (C5); assay: Biacore, antibody captured, purified C5, pH 7.4
# rhesus monkey C5 = molecular target: T7, rhesus monkey C5 (rhesus monkey, UniProt F7GHV1 19-1676); assay: Biacore, antibody captured, rhesus serum as analyte, pH 7.4; estimated, C5 titer assumed
# T7 construct: also called C5 in rhesus serum
# Method: as §3
# [18] = molecular target: T2, human complement component 5 (C5); assay: Biacore, mAb captured via anti-Fc, purified hC5, pH 5.5
# Method: (§4) Binding of hC5 to immobilized mAbs (via capture with anti-Fc antibodies) were measured by Biacore® assays at 7.4 and pH 5.5.
# [19] = molecular target: T2, human complement component 5 (C5); assay: Biacore, mAb captured via anti-Fc, purified hC5, pH 7.4
# Method: as §4
# [20] = molecular target: T3, human neonatal Fc receptor (FcRn); assay: Biacore, immobilized recombinant hFcRn, pH 7.4; range 2000-15.6 nM
# Method: as §2
# cynomolgus monkey C5 [21] = molecular target: T1, cynomolgus monkey C5; assay: KD for cC5 of Antibody B against that of Control 1
# FcγRI = FcγRI (UniProt P12314 16-288, limits assumed); assay: binding affinity to Fcγ receptor, method not stated; range 62.5-0.48 nM
# cynomolgus monkey C5 [22] = molecular target: T1, cynomolgus monkey C5; assay: Biacore, pH 7.4, cynomolgus against human (FIG. 8G)
# Method: as §3
# To validate the binding as specific to C5, pull-down experiments were performed on sera from cynomolgus monkeys. Size exclusion chromatography was used to purify the resulting cynomolgus C5, which was also used to reconfirm binding on biacore.
# [23] = molecular target: T2, human complement component 5 (C5); assay: C5 binding affinity at pH 7.4; method not named in Example 2
# Sequence of FcγRI (P12314 16-288 limits assumed): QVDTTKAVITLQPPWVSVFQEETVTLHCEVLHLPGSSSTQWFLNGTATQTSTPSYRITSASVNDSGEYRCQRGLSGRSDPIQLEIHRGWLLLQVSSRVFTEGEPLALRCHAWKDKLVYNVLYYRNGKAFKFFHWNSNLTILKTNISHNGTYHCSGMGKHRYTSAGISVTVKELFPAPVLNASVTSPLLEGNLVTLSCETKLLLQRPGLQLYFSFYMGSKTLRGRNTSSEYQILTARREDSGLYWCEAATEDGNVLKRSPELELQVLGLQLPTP
# Sequence of FcγRIIIA (P08637 17-208 limits assumed): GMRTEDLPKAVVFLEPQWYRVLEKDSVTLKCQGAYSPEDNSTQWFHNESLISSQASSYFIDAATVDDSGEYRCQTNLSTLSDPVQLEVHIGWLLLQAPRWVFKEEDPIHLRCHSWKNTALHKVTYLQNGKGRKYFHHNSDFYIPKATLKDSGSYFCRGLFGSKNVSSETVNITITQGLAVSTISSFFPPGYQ
# T7 sequence (F7GHV1 entry or part of it): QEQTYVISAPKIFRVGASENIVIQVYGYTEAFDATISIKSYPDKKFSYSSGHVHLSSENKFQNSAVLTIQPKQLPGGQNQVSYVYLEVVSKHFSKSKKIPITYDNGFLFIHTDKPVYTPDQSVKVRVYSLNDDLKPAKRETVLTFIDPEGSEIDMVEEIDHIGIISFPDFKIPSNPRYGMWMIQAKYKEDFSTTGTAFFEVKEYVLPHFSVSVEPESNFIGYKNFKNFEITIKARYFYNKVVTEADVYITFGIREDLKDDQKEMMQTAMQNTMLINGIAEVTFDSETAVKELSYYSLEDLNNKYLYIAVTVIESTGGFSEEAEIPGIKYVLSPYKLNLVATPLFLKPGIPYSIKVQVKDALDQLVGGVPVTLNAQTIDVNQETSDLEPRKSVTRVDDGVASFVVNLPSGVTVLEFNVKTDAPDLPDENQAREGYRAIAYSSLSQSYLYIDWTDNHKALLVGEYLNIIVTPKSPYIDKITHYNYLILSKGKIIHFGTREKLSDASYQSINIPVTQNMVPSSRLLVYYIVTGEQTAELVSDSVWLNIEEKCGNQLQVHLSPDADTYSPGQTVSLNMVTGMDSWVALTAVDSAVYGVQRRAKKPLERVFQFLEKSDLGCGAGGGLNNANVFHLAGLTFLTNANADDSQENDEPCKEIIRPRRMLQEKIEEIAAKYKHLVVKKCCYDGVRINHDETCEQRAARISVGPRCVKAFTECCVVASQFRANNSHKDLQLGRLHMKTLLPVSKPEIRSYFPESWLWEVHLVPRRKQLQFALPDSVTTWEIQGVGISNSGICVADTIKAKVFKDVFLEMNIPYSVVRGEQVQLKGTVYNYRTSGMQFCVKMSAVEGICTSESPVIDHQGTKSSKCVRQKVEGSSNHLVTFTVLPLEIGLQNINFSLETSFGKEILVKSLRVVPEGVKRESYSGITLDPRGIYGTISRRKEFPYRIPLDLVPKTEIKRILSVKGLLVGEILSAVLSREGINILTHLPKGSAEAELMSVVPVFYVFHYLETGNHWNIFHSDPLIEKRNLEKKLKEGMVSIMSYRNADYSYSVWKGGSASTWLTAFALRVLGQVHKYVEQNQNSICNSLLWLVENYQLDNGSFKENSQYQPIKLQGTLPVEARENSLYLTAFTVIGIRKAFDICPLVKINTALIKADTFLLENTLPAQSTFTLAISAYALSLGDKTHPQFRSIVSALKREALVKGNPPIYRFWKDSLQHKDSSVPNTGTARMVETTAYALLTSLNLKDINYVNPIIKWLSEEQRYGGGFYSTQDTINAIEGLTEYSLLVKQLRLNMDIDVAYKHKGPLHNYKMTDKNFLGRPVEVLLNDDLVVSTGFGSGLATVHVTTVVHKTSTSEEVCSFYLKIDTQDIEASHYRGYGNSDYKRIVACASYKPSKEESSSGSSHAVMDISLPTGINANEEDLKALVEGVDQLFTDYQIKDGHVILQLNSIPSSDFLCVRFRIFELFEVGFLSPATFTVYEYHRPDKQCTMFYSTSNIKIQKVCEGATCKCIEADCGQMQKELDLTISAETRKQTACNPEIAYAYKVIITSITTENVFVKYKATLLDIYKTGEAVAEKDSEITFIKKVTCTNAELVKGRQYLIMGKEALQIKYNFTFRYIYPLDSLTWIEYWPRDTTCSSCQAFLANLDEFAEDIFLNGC
# T6 sequence (P06684 19-1680 limits assumed): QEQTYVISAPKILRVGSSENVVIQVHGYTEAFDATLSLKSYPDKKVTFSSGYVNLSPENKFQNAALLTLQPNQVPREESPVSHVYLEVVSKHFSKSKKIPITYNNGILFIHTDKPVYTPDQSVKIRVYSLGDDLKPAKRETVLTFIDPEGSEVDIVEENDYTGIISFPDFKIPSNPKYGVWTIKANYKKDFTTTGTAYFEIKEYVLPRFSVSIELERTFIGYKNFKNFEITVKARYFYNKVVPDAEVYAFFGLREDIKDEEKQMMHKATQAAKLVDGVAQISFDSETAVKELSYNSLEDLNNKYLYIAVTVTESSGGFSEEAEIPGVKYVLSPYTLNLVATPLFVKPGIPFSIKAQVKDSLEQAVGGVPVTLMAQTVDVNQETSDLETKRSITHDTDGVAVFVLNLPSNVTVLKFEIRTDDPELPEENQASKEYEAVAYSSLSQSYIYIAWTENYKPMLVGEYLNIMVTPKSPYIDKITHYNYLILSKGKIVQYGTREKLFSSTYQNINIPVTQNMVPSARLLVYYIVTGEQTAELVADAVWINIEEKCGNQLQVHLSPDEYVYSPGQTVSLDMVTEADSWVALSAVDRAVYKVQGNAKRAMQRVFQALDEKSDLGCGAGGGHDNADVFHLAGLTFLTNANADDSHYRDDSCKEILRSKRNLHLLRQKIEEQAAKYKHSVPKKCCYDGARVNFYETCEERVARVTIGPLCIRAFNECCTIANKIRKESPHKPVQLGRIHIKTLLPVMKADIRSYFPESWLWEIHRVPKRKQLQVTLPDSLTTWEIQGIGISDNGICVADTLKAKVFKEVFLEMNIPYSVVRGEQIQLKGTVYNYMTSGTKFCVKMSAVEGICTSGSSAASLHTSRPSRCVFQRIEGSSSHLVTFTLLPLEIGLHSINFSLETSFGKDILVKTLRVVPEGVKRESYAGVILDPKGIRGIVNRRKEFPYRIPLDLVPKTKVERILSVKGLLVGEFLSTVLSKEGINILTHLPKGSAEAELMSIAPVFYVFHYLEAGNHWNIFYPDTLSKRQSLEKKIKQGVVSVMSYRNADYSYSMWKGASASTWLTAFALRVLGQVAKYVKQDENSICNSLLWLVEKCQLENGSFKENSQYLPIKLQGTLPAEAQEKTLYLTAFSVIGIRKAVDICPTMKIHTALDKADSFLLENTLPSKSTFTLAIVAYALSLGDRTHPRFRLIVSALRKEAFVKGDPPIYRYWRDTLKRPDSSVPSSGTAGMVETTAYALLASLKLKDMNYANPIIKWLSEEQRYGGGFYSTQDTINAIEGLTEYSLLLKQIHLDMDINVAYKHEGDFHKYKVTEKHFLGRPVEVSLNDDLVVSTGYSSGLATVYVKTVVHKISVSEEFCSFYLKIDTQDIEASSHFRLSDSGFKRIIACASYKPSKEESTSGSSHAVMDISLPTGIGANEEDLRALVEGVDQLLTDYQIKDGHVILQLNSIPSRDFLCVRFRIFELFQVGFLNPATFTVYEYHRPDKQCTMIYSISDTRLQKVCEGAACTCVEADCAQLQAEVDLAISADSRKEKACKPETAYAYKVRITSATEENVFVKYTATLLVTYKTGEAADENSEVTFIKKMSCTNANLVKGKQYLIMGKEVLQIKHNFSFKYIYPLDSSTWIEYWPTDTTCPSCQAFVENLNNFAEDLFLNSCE
Binder,Kd [2] [nM],KD fold-change [3] [fold],Kd [4] [nM],Kd (FcγRIIIA) [nM],fold reduction of the C5 binding affinity at pH 7.4 as compared to Control 1 [5] [fold],Kd [6] [nM],Kd [8] [nM],Kd (African Green monkey C5) [nM],Kd (baboon C5) [nM],Fold change in Kd (pH 5.5 vs. pH 7.4) [9] [fold],Kd [11] [nM],IC50 for inhibition of antibody-sensitized lysis of chicken RBC by human serum [7] [µg/mL],other results
"Antibody A (antibody, human IgG1, kappa, L234A L235A, IgG1 with L234A, L235A) heavy: not shown light: DIQMTQSPSSLSASVGDRVTITCGAHENIYHALNWYQQKPGKAPKLLIYGATNLAHGVPSRFSGSGSGTDFTLTISSLQPEDFATYYCQNVLNTPLTFGQGTKVEIKRTVAAPSVFIFPPSDEQLKSGTASVVCLLNNFYPREAKVQWKVDNALQSGNSQESVTEQDSKDSTYSLSSTLTLSKADYEKHKVYACEVTHQGLSSPVTKSFNRGEC",0.34,332,11.3,7420,< 3,113,5.9,–,–,–,–,3,Kd (cynomolgus monkey C5 [1]): 1.65 nM
"Control 1 (antibody, human IgG2, kappa, IgG2 and IgG4 (IgG 2-4); produced in CHO cells; also called control antibody) heavy: QVQLVQSGAEVKKPGASVKVSCKASGYIFSNYWIQWVRQAPGQGLEWMGEILPGSGSTEYTENFKDRVTMTRDTSTSTVYMELSSLRSEDTAVYYCARYFFGSSPNWYFDVWGQGTLVTVSSASTKGPSVFPLAPCSRSTSESTAALGCLVKDYFPEPVTVSWNSGALTSGVHTFPAVLQSSGLYSLSSVVTVPSSNFGTQTYTCNVDHKPSNTKVDKTVERKCCVECPPCPAPPVAGPSVFLFPPKPKDTLMISRTPEVTCVVVDVSQEDPEVQFNWYVDGVEVHNAKTKPREEQFNSTYRVVSVLTVLHQDWLNGKEYKCKVSNKGLPSSIEKTISKAKGQPREPQVYTLPPSQEEMTKNQVSLTCLVKGFYPSDIAVEWESNGQPENNYKTTPPVLDSDGSFFLYSRLTVDKSRWQEGNVFSCSVMHEALHNHYTQKSLSLSLGK light: DIQMTQSPSSLSASVGDRVTITCGASENIYGALNWYQQKPGKAPKLLIYGATNLADGVPSRFSGSGSGTDFTLTISSLQPEDFATYYCQNVLNTPLTFGQGTKVEIKRTVAAPSVFIFPPSDEQLKSGTASVVCLLNNFYPREAKVQWKVDNALQSGNSQESVTEQDSKDSTYSLSSTLTLSKADYEKHKVYACEVTHQGLSSPVTKSFNRGEC",–,–,125,–,–,–,125,27.5,16.2,–,–,–,–
"Antibody D (antibody, human IgG2, kappa, IgG2 Fc constant region; also called F100H heavy / N93H light on IgG2 backbone) heavy: QVQLVQSGAEVKKPGASVKVSCKASGYIFSNYWIQWVRQAPGQGLEWMGEILPGSGSTEYTENFKDRVTMTRDTSTSTVYMELSSLRSEDTAVYYCARYHFGSSPNWYFDVWGQGTLVTVSSASTKGPSVFPLAPCSRSTSESTAALGCLVKDYFPEPVTVSWNSGALTSGVHTFPAVLQSSGLYSLSSVVTVPSSNFGTQTYTCNVDHKPSNTKVDKTVERKCCVECPPCPAPPVAGPSVFLFPPKPKDTLMISRTPEVTCVVVDVSHEDPEVQFNWYVDGVEVHNAKTKPREEQFNSTFRVVSVLTVVHQDWLNGKEYKCKVSNKGLPAPIEKTISKTKGQPREPQVYTLPPSREEMTKNQVSLTCLVKGFYPSDIAVEWESNGQPENNYKTTPPMLDSDGSFFLYSKLTVDKSRWQQGNVFSCSVMHEALHNHYTQKSLSLSPGK light: DIQMTQSPSSLSASVGDRVTITCGASENIYGALNWYQQKPGKAPKLLIYGATNLADGVPSRFSGSGSGTDFTLTISSLQPEDFATYYCQNVLHTPLTFGQGTKVEIKRTVAAPSVFIFPPSDEQLKSGTASVVCLLNNFYPREAKVQWKVDNALQSGNSQESVTEQDSKDSTYSLSSTLTLSKADYEKHKVYACEVTHQGLSSPVTKSFNRGEC",–,–,–,–,–,–,–,–,–,13.4,13.9,–,Kd [10]: 1.04 nM

# Further lines, with some results ahead:
Kd [2] [nM],KD fold-change [3] [fold],Kd [4] [nM],Kd (FcγRIIIA) [nM],fold reduction of the C5 binding affinity at pH 7.4 as compared to Control 1 [5] [fold],Kd [6] [nM],Kd [8] [nM],Kd (African Green monkey C5) [nM],Kd (baboon C5) [nM],Fold change in Kd (pH 5.5 vs. pH 7.4) [9] [fold],Kd [11] [nM],Binder,IC50 for inhibition of antibody-sensitized lysis of chicken RBC by human serum [7] [µg/mL],other results
0.35,414,–,9620,< 3,145,–,3.2,2.6,–,–,"Antibody B (antibody, human IgG1, kappa, L234A L235A, IgG1 with L234A, L235A, H433K, N434F) heavy: not shown light: DIQMTQSPSSLSASVGDRVTITCGAHENIYHALNWYQQKPGKAPKLLIYGATNLAHGVPSRFSGSGSGTDFTLTISSLQPEDFATYYCQNVLNTPLTFGQGTKVEIKRTVAAPSVFIFPPSDEQLKSGTASVVCLLNNFYPREAKVQWKVDNALQSGNSQESVTEQDSKDSTYSLSSTLTLSKADYEKHKVYACEVTHQGLSSPVTKSFNRGEC",3,Kd [12]: 0.24 nM; Kd [13]: 108 nM; Kd [14]: 0.33 nM; Kd (CD-1 mouse C5): 5.3 nM; Kd (cynomolgus monkey C5 [15]): 1.9 nM; Kd [16]: 0.13 nM; Kd [17]: 0.34 nM; Kd (rhesus monkey C5): 3.19 nM; fold lower affinity than BNJ441 at pH 5.5 [18]: 10 fold; fold greater affinity than BNJ441 at pH 7.4 [19]: 3 fold; Kd [20]: 191 nM; fold improvement in affinity against Control 1 (cynomolgus monkey C5 [21]): 8 fold; Kd (FcγRI): 94 nM and 75 nM and 62 nM; fold lower affinity than for human C5 (cynomolgus monkey C5 [22]): 5.7 fold
–,–,–,–,–,–,–,–,–,48.5,34.9,"Antibody E (antibody, human IgG1, kappa, L234A L235A, IgG1 Fc constant region; also called F100H heavy / N93H light on IgG1 backbone) heavy: not shown light: DIQMTQSPSSLSASVGDRVTITCGASENIYGALNWYQQKPGKAPKLLIYGATNLADGVPSRFSGSGSGTDFTLTISSLQPEDFATYYCQNVLHTPLTFGQGTKVEIKRTVAAPSVFIFPPSDEQLKSGTASVVCLLNNFYPREAKVQWKVDNALQSGNSQESVTEQDSKDSTYSLSSTLTLSKADYEKHKVYACEVTHQGLSSPVTKSFNRGEC",–,Kd [23]: 0.72 nM
0.26,142,–,–,< 3,37,–,–,–,–,–,"Antibody C (antibody, human IgG1, kappa, L234A L235A, V domains shown, IgG1 with L234A, L235A, H433K, N434F) VH: QVQLVQSGAEVKKPGASVKVSCKASGYTFSHYWIQWVRQAPGQGLEWMGEILPGSGSTEYTENFKDRVTMTRDTSISTAYMELSSLRSEDTAVYYCARYHFGSSPNWYFDVWGQGTLVTVSS VL: DIQMTQSPSSLSASVGDRVTITCGAHENIYGALNWYQQKPGKAPKLLIYGATNLAHGVPSRFSGSGSGTDFTLTISSLQPEDFATYYCQNVLNTPLTFGQGTKVEIKR",–,–
